Data as given in article PMC10840093.
Like-named read-outs stand apart in the source and are kept apart here.

Measured: degradation_or_half_life

LSD1: LSD1-3KR (K424, K432, K481)
decreases: ubiquitination at K424 | ubiquitination at K432 | ubiquitination at K481
